Numbering of substitutions follows the chain as printed. In names and notes the source's numbering stands.

Sequences and labels used below:
T1: EsCas13d, nuclease-dead (Eubacterium siraeum, UniProt B0MS50, R295A;H300A;R849A;H854A)
T1 sequence: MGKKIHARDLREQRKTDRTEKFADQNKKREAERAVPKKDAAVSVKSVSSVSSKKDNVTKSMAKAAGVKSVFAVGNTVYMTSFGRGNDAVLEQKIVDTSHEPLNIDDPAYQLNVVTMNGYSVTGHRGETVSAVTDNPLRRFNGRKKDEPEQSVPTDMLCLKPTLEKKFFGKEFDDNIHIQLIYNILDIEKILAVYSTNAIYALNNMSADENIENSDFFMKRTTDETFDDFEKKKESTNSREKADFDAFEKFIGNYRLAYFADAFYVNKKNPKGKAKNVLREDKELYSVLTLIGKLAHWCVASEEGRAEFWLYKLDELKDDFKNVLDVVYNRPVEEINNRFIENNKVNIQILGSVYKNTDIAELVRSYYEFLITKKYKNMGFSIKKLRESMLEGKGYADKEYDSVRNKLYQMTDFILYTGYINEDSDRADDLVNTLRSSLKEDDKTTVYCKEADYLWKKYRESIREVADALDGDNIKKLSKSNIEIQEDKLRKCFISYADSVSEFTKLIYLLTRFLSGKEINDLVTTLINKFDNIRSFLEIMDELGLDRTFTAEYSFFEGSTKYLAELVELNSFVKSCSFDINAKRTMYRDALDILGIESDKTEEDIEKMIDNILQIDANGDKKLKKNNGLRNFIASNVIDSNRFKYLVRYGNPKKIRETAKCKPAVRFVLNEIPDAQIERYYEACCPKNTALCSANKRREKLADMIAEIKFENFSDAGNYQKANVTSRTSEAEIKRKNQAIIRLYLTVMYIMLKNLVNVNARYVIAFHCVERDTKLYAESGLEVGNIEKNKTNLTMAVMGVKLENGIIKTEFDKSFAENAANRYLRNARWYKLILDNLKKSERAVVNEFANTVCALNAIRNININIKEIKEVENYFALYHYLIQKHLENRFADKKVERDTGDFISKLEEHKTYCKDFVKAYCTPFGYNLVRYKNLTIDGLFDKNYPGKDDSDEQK

B1: target 1 insU 3' of 18,insG 3' of 11 (mixed)
RNA 1: CACCCGUGCAAAAAUGCAGGGGUCUAAAACUGAGCGGAUAACCUCUCUAUGG
RNA 2: GGGAAUGGAUCCACAUCUACGAAUUCGUACCAUAUGAGAGGUGUAUCCGCUCACCGAGAUCGGAAGAGCACACGU
B2: target 1 insG 3' of 3 (mixed)
RNA 1: B1 RNA 1
RNA 2: GGGAAUGGAUCCACAUCUACGAAUUCGUACCAUAGAGAGGUUAUCCGCUGCACCGAGAUCGGAAGAGCACACGU
B3: target 1 G5C,C22U (mixed)
RNA 1: B1 RNA 1
RNA 2: GGGAAUGGAUCCACAUCUACGAAUUCGUAUCAUAGAGAGGUUAUCCCCUCACCGAGAUCGGAAGAGCACACGU
B4: target 3 U2A,U22A (mixed)
RNA 1: CACCCGUGCAAAAUUGCAGGGGUCUAAAACGACCUGAAUAUUUCAGAUCAAA
RNA 2: GGGAAUGGAUCCACAUCUACGAAUUCGUUAUUGAUCUGAAAUAUUCAGGACUGCAGAUCGGAAGAGCACACGU
B5: target 3 insC 3' of 3,insU 3' of 1 (mixed)
RNA 1: B4 RNA 1
RNA 2: GGGAAUGGAUCCACAUCUACGAAUUCGUUUUUGAUCUGAAAUAUUCAGGCUCUUGCAGAUCGGAAGAGCACACGU
B6: target 3 insA 3' of 6,insA 3' of 1 (mixed)
RNA 1: B4 RNA 1
RNA 2: B5 RNA 2 with G48A, C50G, U53A
B7: target 3 C6G,U22C (mixed)
RNA 1: B4 RNA 1
RNA 2: B4 RNA 2 with A30C, C46G, A50U
B8: target 3 G3C,G4C (mixed)
RNA 1: B4 RNA 1
RNA 2: B4 RNA 2 with A30U, G48C, G49C, A50U
B9: target 3 insA 3' of 22,insU 3' of 22 (mixed)
RNA 1: B4 RNA 1
RNA 2: GGGAAUGGAUCCACAUCUACGAAUUCGUUUAUUUGAUCUGAAAUAUUCAGGUCUGCAGAUCGGAAGAGCACACGU
B10: target 3 insA 3' of 6,insG 3' of 1 (mixed)
RNA 1: B4 RNA 1
RNA 2: B5 RNA 2 with G48A, C50G, U53G
B11: target 3 U2G,U8A (mixed)
RNA 1: B4 RNA 1
RNA 2: B4 RNA 2 with A30U, U44A, A50G
B12: target 3 G4U,C6A (mixed)
RNA 1: B4 RNA 1
RNA 2: B4 RNA 2 with A30U, C46A, G48U, A50U
B13: target 3 insA 3' of 8,insU 3' of 5 (mixed)
RNA 1: B4 RNA 1
RNA 2: B5 RNA 2 with U45A, C46U, A47C, G48A, G49U, C50G, U51G, C52U, U53C
B14: target 3 A11C,U22A (mixed)
RNA 1: B4 RNA 1
RNA 2: B4 RNA 2 with A41C, A50U
B15: target 3 insC 3' of 3 (mixed)
RNA 1: B4 RNA 1
RNA 2: GGGAAUGGAUCCACAUCUACGAAUUCGUUUUUGAUCUGAAAUAUUCAGGCUCUGCAGAUCGGAAGAGCACACGU
B16: target 3 insA 3' of 7,insU 3' of 4 (mixed)
RNA 1: B4 RNA 1
RNA 2: B5 RNA 2 with C46A, A47C, G48A, C50U, U51G, C52U, U53C
B17: target 3 G3U,U21A (mixed)
RNA 1: B4 RNA 1
RNA 2: B4 RNA 2 with A30U, U31A, G49U, A50U
B18: target 3 U2C,C6U (mixed)
RNA 1: B4 RNA 1
RNA 2: B4 RNA 2 with A30U, C46U, A50C
B19: target 3 G4U,U22C (mixed)
RNA 1: B4 RNA 1
RNA 2: B4 RNA 2 with A30C, G48U, A50U
B20: target 3 insA 3' of 21,insC 3' of 21 (mixed)
RNA 1: B4 RNA 1
RNA 2: B9 RNA 2 with A31U, U32A, U33C
B21: target 3 A12G,U21A (mixed)
RNA 1: B4 RNA 1
RNA 2: B4 RNA 2 with A30U, U31A, A40G, A50U
B22: target 3 C6U,U21G (mixed)
RNA 1: B4 RNA 1
RNA 2: B4 RNA 2 with A30U, U31G, C46U, A50U
B23: target 3 insC 3' of 3,insA 3' of 1 (mixed)
RNA 1: B4 RNA 1
RNA 2: B5 RNA 2 with U53A
B24: target 3 insG 3' of 5,insC 3' of 4 (mixed)
RNA 1: B4 RNA 1
RNA 2: B5 RNA 2 with U51G, C52U, U53C
B25: target 3 insA 3' of 22,insG 3' of 5 (mixed)
RNA 1: B4 RNA 1
RNA 2: GGGAAUGGAUCCACAUCUACGAAUUCGUUUAUUGAUCUGAAAUAUUCAGGGUCUGCAGAUCGGAAGAGCACACGU
B26: target 3 G3C,U22G (mixed)
RNA 1: B4 RNA 1
RNA 2: B4 RNA 2 with A30G, G49C, A50U
B27: target 3 insA 3' of 15,insA 3' of 2 (mixed)
RNA 1: B4 RNA 1
RNA 2: B25 RNA 2 with A31U, U33G, G34A, A35U, U36C, C37U, U38A, G51U, U52A
B28: target 3 insC 3' of 12,insU 3' of 4 (mixed)
RNA 1: B4 RNA 1
RNA 2: GGGAAUGGAUCCACAUCUACGAAUUCGUUUUUGAUCUGAACAUAUUCAGUGUCUGCAGAUCGGAAGAGCACACGU
B29: target 3 A5C,U7A (mixed)
RNA 1: B4 RNA 1
RNA 2: B4 RNA 2 with A30U, U45A, A47C, A50U
B30: target 3 insU 3' of 16 (mixed)
RNA 1: B4 RNA 1
RNA 2: B15 RNA 2 with G38U, A39G, U42A, A43U, U44A, C46U, A47C, G48A, C50G
B31: target 3 insC 3' of 4,insC 3' of 4 (mixed)
RNA 1: B4 RNA 1
RNA 2: B5 RNA 2 with G49C, U51G, C52U, U53C

This data set concerns the target T1, EsCas13d, nuclease-dead. Briefly: crRNA (strand 1, pre-loaded); Mg2+; 40 mM Tris-HCl pH 7.5, 150 mM NaCl, 6 mM MgCl2, 1 mM DTT, 0.1% Tween-20, 0.2 mg/ml BSA; 25 C; 10 min per concentration, then washed. To be noted: tags: His6-TwinStrep-SUMO cleaved; N-terminal SNAP kept (SNAP-Surface 488); label: 3' end held by stalled T7 RNA polymerase.
The term Kd denotes the equilibrium constant for the complex coming apart. Higher therefore signals lower affinity. In turn, B1 came in with a Kd of 78 ± 21 nM.
As to B2, the Kd came to 7.3 ± 0.6 nM.
On to B3, for which the Kd was 22.6 ± 2.9 nM.
B4 had a Kd of 32.8 ± 2.85 nM.
Take B5: the Kd was 46 ± 6 nM.
B6 yielded a Kd of 53 ± 18 nM.
For B7 the value was 36.5 ± 6 nM; for B8, 36.1 ± 5.75 nM.
Molecule B9 returned a Kd of 14.6 ± 1.45 nM.
For B10 the value was 32 ± 11 nM.
In the case of B11, the Kd came out at 21.6 ± 3.55 nM.
Molecule B12 registered a Kd of 29.5 ± 7.5 nM.
In turn, B13 showed a Kd of 33.9 ± 3.75 nM.
B14 had a Kd of about 90 nM.
B15 registered a Kd of 19.4 ± 2.05 nM.
In the case of B16, binding was put at a Kd of 12.7 ± 1.2 nM.
On to B17, for which the affinity, expressed as Kd, was 87.5 ± 15.5 nM.
The same measure for B18: 52.5 ± 7 nM; for B19: 4.65 ± 0.85 nM; for B20: 47 ± 11.5 nM.
Molecule B21 registered a Kd of 97.5 ± 47 nM.
B22 came in with a Kd of 110 ± 40 nM.
B23: the Kd was 83 ± 17 nM.
With B24, the Kd turned out to be 7.65 ± 1.2 nM.
B25: the Kd amounted to 23.1 ± 3.4 nM. This Kd is about 3-fold higher than that of the molecule before.
The same measure for B26: 79.5 ± 13 nM; for B27: about 64 nM; for B28: about 64.5 nM.
With B29, the Kd was determined as 77.5 ± 13.5 nM.
For B30 the value was 64 ± 8.5 nM; for B31, 34.5 ± 8.5 nM.

Values taken from PMC10786891, “Massively parallel profiling of RNA-targeting CRISPR-Cas13d”.
